Measurements: patent US20260184782A1 (TWIST BIOSCIENCE, published 2026)
Where a chain is given by its changes, count along the chain named.

B1: TIGIT-30-20 VHH-V5-His (VHH)
VHH: EVQLVESGGGLVQAGGSLRLSCAASGPTFSIYDMGWFRQAPGKEREFVAVINWSRGSTFYADSVKGRFTISADNAKNTVYLQMNSLKPEDTAVYYCAAGVWSSLRHTAANWGQGTQVTVSS
notes: not shown: V5 and His tags
B2: TIGIT-30-49 VHH-V5-His (VHH)
VHH: EVQLVESGGGLVQAGGSLRLSCAASGNIFSRYIMGWFRQAPGKEREWVAGISNGGTTKYADSVKGRFTISADNAKNTVYLQMNSLKPEDTAVYYCAQGWKIVPTNWGQGTQVTVSS
notes: not shown: V5 and His tags
B3: TIGIT-SC67 (Fc fusion)
VHH: EVQLVESGGGLVQPGGSLRLSCAASGFTFDRSWMGWFRQAPGKEREWVSTIYSNGTPAYADSVKGRFTISADNSKNTAYLQMNSLKPEDTAVYYCARRGLPSYSYGMDVWGQGTLVTVSS
notes: VHH-Fc
B4: TIGIT-29-18 VHH-V5-His (VHH)
VHH: EVQLVESGGGLVQAGGSLRLSCAASGSTFSNYAMGWFRQAPGKEREFVSAINSSGSRTYYADSVKGRFTISADNAKNTVYLQMNSLKPEDTAVYYCAARLWGTWTAGDYDYWGQGTQVTVSS
notes: not shown: V5 and His tags
B5: TIGIT-29-22 VHH-V5-His (VHH)
VHH: B4 VHH with T28I, F29L, N31S, A33T, A50T, N52S, S53R, G55S, S56T
notes: not shown: V5 and His tags
B6: TIGIT-29-34 VHH-V5-His (VHH)
VHH: B4 VHH with S27F, S30R, A50S, N52S, G55S, Y59S
notes: not shown: V5 and His tags
B7: TIGIT-30-15 VHH-V5-His (VHH)
VHH: EVQLVESGGGLVQAGGSLRLSCAASGFTFSGNWMGWFRQAPGKEREWVSGISSGGGRTYYADSVKGRFTISADNAKNTVYLQMNSLKPEDTAVYYCAADVWYGSTWRNWGQGTQVTVSS
notes: not shown: V5 and His tags
B8: TIGIT-29-01 VHH-V5-His (VHH)
VHH: EVQLVESGGGLVQAGGSLRLSCAASGRTFSNYAMGWFRQAPGKEREFVAAITWSGTRTDYADSVKGRFTISADNAKNTVYLQMNSLKPEDTAVYYCAAAAWTIYEYDYWGQGTQVTVSS
notes: not shown: V5 and His tags
B9: TIGIT-29-12 VHH-V5-His (VHH)
VHH: B8 VHH with R27S, N31S, D59N, E105T, Y108S
notes: not shown: V5 and His tags
B10: TIGIT-29-30 VHH-V5-His (VHH)
VHH: B8 VHH with R27F, N31S, T102R, I103Y, Y104S
notes: not shown: V5 and His tags
B11: TIGIT-29-33 VHH-V5-His (VHH)
VHH: B8 VHH with R27F, T28I, N31T, F47L, A49S, W53R, T56I, R57T, D59Y
notes: not shown: V5 and His tags
B12: TIGIT-29-07 VHH-V5-His (VHH)
VHH: B8 VHH with R27S, T28I, A50T, T52S, W53R, S54G, D59N, E105A, D107N
notes: not shown: V5 and His tags
B13: TIGIT-SC149 (Fc fusion)
VHH: EVQLVESGGGLVQPGGSLRLSCAASGFTLENNMMGWFRQAPGKEREFVAAISRSGTLKAYADSVKGRFTISADNSKNTAYLQMNSLKPEDTAVYYCAKVQGPYCSGGSCYLYTFDLWGQGTLVTVSS
notes: VHH-Fc
B14: TIGIT-SC152 (Fc fusion)
VHH: EVQLVESGGGLVQPGGNLRLSCAASGSTFSKHHAMGWFRQAPGKEREFVAGIIRSGTLKAYADSVKGRFTISADNSKNTAYLQMNSLKPEDTAVYYCTRGRAARHNLWYFDLWGQGTLVTVSS
notes: VHH-Fc
B15: TIGIT-SC65 (Fc fusion)
VHH: EVQLVESGGGLVQPGGSLRLSCAASGFTFGNYDMGWFRQAPGKEREFVAAITGSGRSTYYADSVKGRFTISADNSKNTAYLQMNSLKPEDTAVYYCARGRIAASGTKVYWYFDLWGQGTLVTVSS
notes: VHH-Fc
B16: TIGIT-29-10 VHH-V5-His (VHH)
VHH: EVQLVESGGGLVQAGGSLRLSCAASGRTFSNYGMGWFRQAPGKEREFVSGISGSGGRTSYADSVKGRFTISADNAKNTVYLQMNSLKPEDTAVYYCAANLWYPVDRLNTGFNYWGQGTQVTVSS
notes: not shown: V5 and His tags
B17: TIGIT-SC193 (Fc fusion)
VHH: EVQLVESGGGLVQPGGSLRLSCAASGFTFSDYWMGWFRQAPGKEREFVAAISRSGTLKAYADSVKGRFTISADNSKNTAYLQMNSLKPEDTAVYYCARGSGWPKIHFDYWGQGTLVTVSS
notes: VHH-Fc
B18: TIGIT-SC82 (Fc fusion)
VHH: EVQLVESGGGLVQPGGSLRLSCAASGSMSSNYAMGWFRQAPGKEREFVAAIDWSGGNTYYADSVKGRFTISADNSKNTAYLQMNSLKPEDTAVYYCAKWFYYGSGLYTLDVWGQGTLVTVSS
notes: VHH-Fc
B19: TIGIT-SC83 (Fc fusion)
VHH: B18 VHH with S27R, M28T, S29F, N31D, Y32D, D52S, W53R
notes: VHH-Fc
B20: TIGIT-29-06 VHH-V5-His (VHH)
VHH: EVQLVESGGGLVQAGGSLRLSCAASGGTFRSYVMGWFRQAPGKEREWVATINSSGSRTYYADSVKGRFTISADNAKNTVYLQMNSLKPEDTAVYYCAARPNYRDYEYWGQGTQVTVSS
notes: not shown: V5 and His tags
B21: TIGIT-30-52 VHH-V5-His (VHH)
VHH: EVQLVESGGGLVQAGGSLRLSCAASGRTFSNYFMGWFRQAPGKERESVATVTWRDNITYYADSVKGRFTISADNAKNTVYLQMNSLKPEDTAVYYCASAGRWGQGTQVTVSS
notes: not shown: V5 and His tags
B22: TIGIT-30-43 VHH-V5-His (VHH)
VHH: EVQLVESGGGLVQAGGSLRLSCAASGFTFSTSWMGWFRQAPGKERELVAARNSGGNTNYADSVKGRFTISADNAKNTVYLQMNSLKPEDTAVYYCAADVWYGSTWRNWGQGTQVTVSS
notes: not shown: V5 and His tags
B23: TIGIT-30-01 VHH-V5-His (VHH)
VHH: B22 VHH with T28A, T31S, S32Y
notes: not shown: V5 and His tags
B24: TIGIT-30-40 VHH-V5-His (VHH)
VHH: B22 VHH with T31G, S32N, L47W, A49V, A50G, R51I, N52S, N56S, N58H
notes: not shown: V5 and His tags
B25: TIGIT-30-30 VHH-V5-His (VHH)
VHH: EVQLVESGGGLVQAGGSLRLSCAASGGTFSGRGMGWFRQAPGKEREWVSSVYIFGGSTYYADSVKGRFTISADNAKNTVYLQMNSLKPEDTAVYYCANSNKPKFDWGQGTQVTVSS
notes: not shown: V5 and His tags
B26: TIGIT-SC151 (Fc fusion)
VHH: EVQLVESGGGLVQPGGSLRLSCAASGFPFSIYPMGWFRQAPGKEREFVAAISASGTLRAYADSVKGRFTISADNSKNTAYLQMNSLKPEDTAVYYCARSSSWVRIFDYWGQGTLVTVSS
notes: VHH-Fc

Key:
[1] = target: T1, TIGIT (UniProt Q495A1 22-141, limits assumed); assay: SPR, VHH-V5-His
T1 construct: construct not described; also called T cell immunoreceptor with Ig and ITIM domains
T1 sequence (looked up): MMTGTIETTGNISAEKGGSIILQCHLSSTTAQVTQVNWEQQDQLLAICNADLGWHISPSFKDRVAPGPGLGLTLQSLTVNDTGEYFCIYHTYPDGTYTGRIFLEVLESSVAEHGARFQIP

[2] = target: T1, TIGIT; assay: SPR, VHH-V5-His; unit inferred
[3] = target: T2, human TIGIT-Fc (human, UniProt Q495A1 22-141, limits assumed); assay: CD155 competition ELISA, titration
T2 construct: not shown: Fc; not described
T2 sequence (looked up): T1 sequence (looked up)
Protocol: (§1) TIGIT/CD155 inhibition of VHH-Fcs were assessed using an ELISA assay (Table 10B). Briefly, human TIGIT-Fc was coated on a plate & then incubated with VHH-Fcs and human CD155-biotin. Bound CD155-biotin was detected using a streptavidin-HRP conjugate visualized with TMB. Strong inhibitors from the single point screen were titrated to determine EC50 (Table 10C).

[4] = target: T2, human TIGIT-Fc; assay: CD155 competition ELISA, single point; further: test concentration or dose not given here
Protocol: as §1

Binder	RU [1]	Kd [2]	EC50 [3]	OD (450 nm) [4]
B1	69 RU	195 nM		
B2	99 RU	945 nM		
B3			1.23 nM	0.149 OD
B4	157 RU	352 nM		
B5	123 RU	500 nM		
B6	167 RU	967 nM		
B7	66 RU	215 nM		
B8	88 RU	365 nM		
B9	464 RU	8580 nM		
B10	77 RU	232 nM		
B11	202 RU			
B12	26 RU	465 nM		
B13			11.9 nM	0.263 OD
B14			13.4 nM	0.259 OD
B15			4.09 nM	0.0846 OD
B16	36 RU	323 nM		
B17			4.39 nM	0.151 OD
B18			4.08 nM	0.25 OD
B19			4.36 nM	0.241 OD
B20	26100 RU			
B21	270 RU			
B22	407 RU	107 nM		
B23	664 RU	7460 nM		
B24	113 RU	222 nM		
B25	3 RU			
B26			4.14 nM	0.206 OD
